Test results taken from PMC4209447.

How the values were obtained:
[1] = target: protein A/G (recombinant fusion protein with protein A and protein G binding sites)
[2] = target: protein A/G (recombinant fusion protein with protein A and protein G binding sites); remark: listed apart in the source

Question: Which peak wavelength shift after 80 minutes of injection [1] does the source give for Human IgG protein (antibody) here?
Answer: Its peak wavelength shift after 80 minutes of injection is 6 nm.

Question: What about the exponential constant of the fit to the association phase (peak wavelength shift) [2] of the same substance?
Answer: Its exponential constant of the fit to the association phase (peak wavelength shift) is 0.000533.
